Among the data in patent US20200199231A1 are EC50 (read off the curve) values, retold here.

For the assay, the target named is human CD20 (human) (UniProt P11836). In words: flow cytometry on Daudi cells (CD20-positive, CD3-negative); PE-conjugated goat anti-human IgG F(ab')2; geomean (PE).
Chain of human CD20 (human) (P11836 whole entry): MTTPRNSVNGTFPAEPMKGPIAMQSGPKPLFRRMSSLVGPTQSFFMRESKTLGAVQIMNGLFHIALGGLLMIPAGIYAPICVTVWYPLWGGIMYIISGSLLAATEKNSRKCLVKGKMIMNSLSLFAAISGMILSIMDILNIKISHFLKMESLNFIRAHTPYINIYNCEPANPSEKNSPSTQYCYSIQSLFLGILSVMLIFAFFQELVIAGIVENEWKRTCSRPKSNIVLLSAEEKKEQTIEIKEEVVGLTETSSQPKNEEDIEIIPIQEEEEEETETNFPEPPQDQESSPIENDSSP

The EC50 (read off the curve) is the midpoint of the concentration-response curve. The substance IgG1-GA101 (antibody) yielded an EC50 (read off the curve) of 0.6 µg/mL. The substance IgG1-RTX (antibody) gave a concentration giving a half-maximal response (EC50 (read off the curve)) of 0.7 µg/mL.
